Experimental data published in US6855515B1, “Autoantigenic fragments, methods and assays” (Merck & Co., Inc., priority 1998, dated 2005).

B1: Fibrilliarin: autoantigen (protein)
chain: MKPGFSPRGGGFGGRGGFGDRGGRGGRGGFGGGRGRGGGFRGRGRGGGGGGGGGGGGGRGGGGFHSGGNRGRGRGGKRGNQSGKNVMVEPHRHEGVFICRGKEDALVTKNLVPGESVYGEKRVSISEGDDKIEYRAWNPFRSKLAAAILGGVDQIHIKPGAKVLYLGAASGTTVSHVSDIVGPDGLVYAVEFSHRSGRDLINLAKKRTNIIPVIEDARHPHKYRMLIAMVDVIFADVAQPDQTRIVALNAHTFLRNGGHFVISIKANCIDSTASAEAVFASEVKKMQQENMKPQEQLTLEPYERDHAVVVGVYRPPPKVKN
B2: Isoleucyl tRNA synthetase (O.J.): autoantigen targeted in autoimmune myositis (protein)
chain: MLQQVPENINFPAEEEKILEFWTEFNCFQECLKQSKHKPKFTFYDGPPFATGLPHYGHILAGTIKDIVTRYAHQSGFHVDRRFGWDCHGLPVEYEIDKTLGIRGPEDVAKMGITEYNNQCRAIVMRYSAEWKSTVSRLGRWIDFDNDYKTLYPQFMESVWWVFKQLYDKGLVYRGVKVMPFSTACNTPLSNFESHQNYKDVQDPSVFVTFPLEEDETVSLVAWTTTPWTLPSNLAVCVNPEMQYVKIKDVARGRLLILMEARLSALYKLESDYEILERFPGAYLKGKKYRPLFDYFLKCKENGAFTVLVDNYVKEEEGTGVVHQAPYFGAEDYRVCMDFNIIRKDSLPVCPVDASGCFTTEVTDFAGQYVKDADKSIIRTLKEQGRLLVATTFTHSYPFCWRSDTPLIYKAVPSWFVRVENMVDQLLRNNDLCYWVPELVREKRFGNWLKDARDWTISRNRYWGTPIPLWVSDDFEEVVCIGSVAELEELSGAKISDLHRESVDHLTIPSRCGKGSLHRISEVFDCWFESGSMPYAQVHYPFENKREFEDAFPADFIAEGIDQTRGWFYTLLVLATALFGQPPFKNVIVNGLVLASDGQKMSKRKKNYPDPVSIIQKYGADALRLYLINSPVVRAENLRFKEEGVRDVLKDVLLPWYNAYRFLIQNVLRLQKEEEIEFLYNENTVRESPNITDRWILSFMQSLIGFFETEMAAYRLYTVVPRLVKFVDILTNWYVRMNRRRLKGENGMEDCVMALETLFSVLLSLCRLMAPYTPFLTELMYQNLKVLIDPVSVQDKDTLSIHYLMLPRVREELIDKKTESAVSQMQSVIELGRVIRDRKTIPIKYPLKEIVVIHQDPEALKDIKSLEKYIIEELNVRKVTLSTDKNKYGIRLRAEPDHMVLGKRLKGAFKAVMTSIKQLSSEELEQFQKTGTIVVEGHELHDEDIRLMYTFDQATGGTAQFEAHSDAQALVLLDVTPDQSMVDEGMAREVINRIQKLRKKCNLVPTDEITVYYKAKSEGTYLNSVIESHTEFIFTTIKAPLKPYPVSPSDKVLIQEKTQLKGSELEITLTRGSSLPGPACAYVNLNICANGSEQGGVLLLENPKGDNRLDLLKLKSVVTSIFGVKNTELAVFHDETEIQNQTDLLSLSGKTLCVTAGSAPSLINSSSTLLCQYINLQLLNAKPQECLMGTVGTLLLENPLGQNGLTHQGLLYEAAKVFGLRSRKLKLFLNETQTQEITEDIPVKTLNMKTVYVSVLPTTADF
B3: CENP B: autoantigen (protein)
chain: GPKRRQLTFREKSRIIQEVEENPDLRKGEIARRFNIPPSTLSTILKNKRAILASERKYGVASTCRKTNKLSPYDKLEGLLIAWFQQIRAAGLPVKGIILKEKALRIAEELGMDDFTASNGWLDRFRRRHGVVSCSGVARARARNAAPRTPAAPASPAAVPSEGSGGSTTGWRAREEQPPSVAEGYASQDVFSATETSLWYDFLPDQAAGLCGGDGRPRQATQRLSVLLCANADGSEKLPPLVAGKSAKPRAGQAGLPCDYTANSKGGVTTQALAKYLKALDTRMAAESRRVLLLAGRLAAQSLDTSGLRHVQLAFFPPGTVHPLERGVVQQVKGHYRQAMLLKAMAALEGQDPSGLQLGLTEALHFVAAAWQAVEPSDIAACFREAGFGGGPNATITTSLKSEGEEEEEEEEEEEEEEGEGEEEEEEGEEEEEEGGEGEELGEEEEVEEEGDVDSDEEEEEDEESSSEGLEAEDWAQGVVEAGGSFGAYGAQEEAQCPTLHFLEGGEDSDSDSEEEDDEEEDDEDEDDDDDEEDGDEVPVPSFGEAMAYFAMVKRYLTSFPIDDRVQSHILHLEHDLVHVTRKNHARQAGVRGLGHQS
B4: NOR-90: autoantigen (protein, UniProt P17480 1-764, looked up)
Nucleolar transcription …: MNGEADCPTDLEMAAPKGQDRWSQEDMLTLLECMKNNLPSNDSSKFKTTESHMDWEKVAFKDFSGDMCKLKWVEISNEVRKFRTLTELILDAQEHVKNPYKGKKLKKHPDFPKKPLTPYFRFFMEKRAKYAKLHPEMSNLDLTKILSKKYKELPEKKKMKYIQDFQREKQEFERNLARFREDHPDLIQNAKKSDIPEKPKTPQQLWYTHEKKVYLKVRPDATTKEVKDSLGKQWSQLSDKKRLKWIHKALEQRKEYEEIMRDYIQKHPELNISEEGITKSTLTKAERQLKDKFDGRPTKPPPNSYSLYCAELMANMKDVPSTERMVLCSQQWKLLSQKEKDAYHKKCDQKKKDYEVELLRFLESLPEEEQQRVLGEEKMLNINKKQATSPASKKPAQEGGKGGSEKPKRPVSAMFIFSEEKRRQLQEERPELSESELTRLLARMWNDLSEKKKAKYKAREAALKAQSERKPGGEREERGKLPESPKRAEEIWQQSVIGDYLARFKNDRVKALKAMEMTWNNMEKKEKLMWIKKAAEDQKRYERELSEMRAPPAATNSSKKMKFQGEPKKPPMNGYQKFSQELLSNGELNHLPLKERMVEIGSRWQRISQSQKEHYKKLAEEQQKQYKVHLDLWVKSLSPQDRAAYKEYISNKRKSMTKLRGPNPKSSRTTLQSKSESEEDDEEDEDDEDEDEEEEDDENGDSSEDGGDSSESSSEDESEDGDENEEDDEDEDDDEDDDEDEDNESEGSSSSSSSSGDSSDSDSN
B5: La: autoantigen (protein, UniProt P05455 1-408, looked up)
Lupus La protein: MAENGDNEKMAALEAKICHQIEYYFGDFNLPRDKFLKEQIKLDEGWVPLEIMIKFNRLNRLTTDFNVIVEALSKSKAELMEISEDKTKIRRSPSKPLPEVTDEYKNDVKNRSVYIKGFPTDATLDDIKEWLEDKGQVLNIQMRRTLHKAFKGSIFVVFDSIESAKKFVETPGQKYKETDLLILFKDDYFAKKNEERKQNKVEAKLRAKQEQEAKQKLEEDAEMKSLEEKIGCLLKFSGDLDDQTCREDLHILFSNHGEIKWIDFVRGAKEGIILFKEKAKEALGKAKDANNGNLQLRNKEVTWEVLEGEVEKEALKKIIEDQQESLNKWKSKGRRFKGKGKGNKAAQPGSGKGKVQFQGKKTKFASDDEHDEHDENGATGPVKRAREETDKEEPASKQQKTENGAGDQ
B6: Alanyl tRNA synthetase (PL-12): autoantigen targeted in autoimmune myositis (protein)
chain: MDSTLTASEIRQRFIDFFKRNEHTYVHSSATIPLDDPTLLFANAGMNQFKPIFLNTIDPSHPMAKLSRAANTQKCIRAGGKHNDLDDVGKDVYHHTFFEMLGSWSFGDYFKELACKMALELLTQEFGIPIERLYVTYFGGDEAAGLEADLECKQIWQNLGLDDTKILPGNMKDNFWEMGDTGPCGPCSEIHYDRIGGRDAAHLVNQDDPNVLEIWNLVFIQYNREADGILKPLPKKSIDTGMGLERLVSVLQNKMSNYDTDLFVPYFEAIQKGTGARPYTGKVGAEDADGIDMAYRVLADHARTITVALADGGRPDNTGRGYVLRRILRRAVRYAHEKLNASRGFFATLVDVVVQSLGDAFPELKKDPDMVKDIINEEEVQFLKTLSRGRRILDRKIQSLGDSKTIPGDTAWLLYDTYGFPVDLTGLIAEEKGLVVDMDGFEEERKLAQLKSQGKGAGGEDLIMLDIYAIEELRARGLEVTDDSPKYNYHLDSSGSYVFENTVATVMALRREKMFVEEVSTGQECGVVLDKTCFYAEQGGQIYDEGYLVKVDDSSEDKTEFTVKNAQVRGGYVLHIGTIYGDLKVGDQVWLFIDEPRRRPIMSNHTATHILNFALRSVLGEADQKGSLVAPDRLRFDFTAKGAMSTQQIKKAEEIANEMIEAAKAVYTQDCPLAAAKAIQGLRAVFDETYPDPVRVVSIGVPVSELLDDPSGPAGSLTSVEFCGGTHLRNSSHAGAFVIVTEEAIAKGIRRIVAVTGAEAQKALRKAESLKKCLSVMEAKVKAQTAPNKDVQREIADLGEALATAVIPQWQKDELRETLKSLKKVMDDLDRASKADVQKRVLEKTKQFIDSNPNQPLVILEMESGASAKALNEALKLFKMHSPQTSAMLFTVDNEAGKITCLCQVPQNAANRGLKASEWVQQVSGLMDGKGGGKDVSAQATGKNVGCLQEALQLATSFAQLRLGDVKN
B7: Histidyl tRNA synthetase (Jo-1): autoantigen targeted in autoimmune myositis (protein)
chain: AERAALEELVKLQGERVRGLKQQKASAELIEEEVAKLLKLKAQLGPDESKQKFVLKTPKGTRDYSPRQMAVREKVFDVIIRCFKRHGAEVIDTPVFELKETLMGKYGEDSKLIYDLKDQGGELLSLRYDLTVPFARYLAMNKLTNIKRYHIAKVYRRDNPAMTRGRYREFYQCDFDIAGNFDPMIPDAECLKIMCEILSSLQIGDFLVKVNDRRILDGMFAICGVSDSKFRTICSSVDKLDKVSWEEVKNEMVGEKGLAPEVADRIGDYVQQHGGVSLVEQLLQDPKLSQNKQALEGLGDLKLLFEYLTLFGIDDKISFDLSLARGLDYYTGVIYEAVLLQTPAQAGEEPLGVGSVAAGGRYDGLVGMFDPKGRKVPCVGLSIGVERIFSIVEQRLEALEEKIRTTETQVLVASAQKKLLEERLKLVSELWDAGIKAELLYKKNPKLLNQLQYCEEAGIPLVAIIGEQELKDGVIKLRSVTSREEVDVRREDLVEEIKRRTGQPLCIC

Molecular target: T1, granzyme B (Homo sapiens, UniProt P10144)
T1 construct: Some of these preparations were used for the further purification of granzyme B (Tschopp, 1994); endogenous in cells; host or cells: YT cells (human NK cell line), cytoplasmic granules
Assay: Susceptibility of autoantigens to cleavage by purified granzyme B (HeLa lysate immunoblot or immunoprecipitates)
Assay type: biochemical
Conditions: in vitro
Protocol: To determine whether susceptibility to direct cleavage by granzyme B was an isolated feature of PARP, NuMA and DNA-PKcs shown above, or whether it was a more general feature of autoantigens, a variety of well-defined autoantigens selected from across the spectrum of systemic autoimmune diseases were tested for susceptibility to cleavage by purified granzyume B. The efficiency of cleavage of the substrates by purified granzyme B was also noted (Table 3). Initially, a series of autoantibodies of well-defined specificity were used to immunoblot lysates of HeLa cells that had been incubated in vitro with or without granzyme B. Lysates were pre-treated with iodoacetamide (IAA) to prevent interference by endogenous caspase activity.
To perform these studies, HeLa cells were radiolabeled with [^35S] methionine/cysteine, and proteins were immunoprecipitated using human autoantibodies. Protein A-agarose beads containing washed precipitated proteins were resuspended in buffer supporting the activity of granzyme B, and incubated in the absence or presence of added purified granzyme B. Reaction products were visualized using SDS-PAGE and fluorography. To confirm the validity of this approach, several different autoantigens known to be cleaved by granzyme B, as well as several autoantigens and non-autoantigens that are not cleaved by granzyme B, were tested. Using autoantibodies that both immunoblot and immunprecipitate, the cleavage profiles obtained using granzyme B to cleave molecules in lysates (followed by detection with immunoblotting), and after immunoprecipitation (from [^35S]methionine-labeled HeLa lysate) were compared. Identical results were obtained using these 2 methods for cleaved autoantigens (topoisomerase-1, Mi-2, RNA polymerase II large subunit, Ku-70, PARP, and NOR-90), uncleaved autoantigens (Ku-80, Ro 60k), and control substrates (β-tubulin, vinculin). […] Of note, all these additional autoantigens (with the exception of RNA polymerase I) are targeted in autoimmune myositis. However, two other tRNA synthetases (threonyl tRNA synthetase and glycyl tRNA synthetase) that are also autoantigens in autoimmune myositis, were not cleaved using this approach.

T1 sequence (P10144 21-247): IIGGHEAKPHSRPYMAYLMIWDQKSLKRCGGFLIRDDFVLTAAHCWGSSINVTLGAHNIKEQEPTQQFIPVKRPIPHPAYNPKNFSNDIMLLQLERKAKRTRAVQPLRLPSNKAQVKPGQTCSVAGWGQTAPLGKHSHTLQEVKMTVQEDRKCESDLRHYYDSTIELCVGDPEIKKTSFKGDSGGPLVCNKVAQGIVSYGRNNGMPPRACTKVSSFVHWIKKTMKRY

Molecule	susceptibility to cleavage by granzyme B
B1	efficiently cleaved
B2	cleaved
B3	efficiently cleaved
B4	efficiently cleaved
B5	efficiently cleaved
B6	cleaved
B7	cleaved
